# Source: patent US20180284123A1 (CALIFORNIA INSTITUTE OF TECHNOLOGY, published 2018)
# Ends that are not written are not given here.
# B1: L7b (peptide)
# peptide: VQVPY
# modifications: triazole (positions not given here); not fully specified (bridges); also: 1,4-triazole macrocycle, ring places not given here, propargylglycine click handle, place not given here, biotinylated (biotin NovaTag resin), site not given here
# notes: also called VQVPY f2
# B2: L7a (peptide)
# peptide: VQVPY
# modifications: triazole (positions not given here); not fully specified (bridges); also: 1,4-triazole macrocycle, ring places not given here, propargylglycine click handle, place not given here, biotinylated (biotin NovaTag resin), site not given here
# notes: also called VQVPY f1
# B3: L3a (peptide)
# peptide: GEVVP
# modifications: triazole (positions not given here); not fully specified (bridges); also: 1,4-triazole macrocycle, ring places not given here, propargylglycine click handle, place not given here, biotinylated (biotin NovaTag resin), site not given here
# notes: also called GEVVP f1
# B4: L8 (peptide)
# peptide: TDNFY
# modifications: triazole (positions not given here); not fully specified (bridges); also: macrocycle closed by 1,4-triazole, propargylglycine click handle, other ring residues not given here
# notes: also called TDNFY
# B5: L5b (peptide)
# peptide: VEVYP
# modifications: triazole (positions not given here); not fully specified (bridges); also: 1,4-triazole macrocycle, ring places not given here, propargylglycine click handle, place not given here, biotinylated (biotin NovaTag resin), site not given here
# notes: also called VEVYP f2
# B6: L6 (peptide)
# peptide: VTVPY
# modifications: triazole (positions not given here); not fully specified (bridges); also: macrocycle closed by 1,4-triazole, propargylglycine click handle, other ring residues not given here
# notes: also called VTVPY
# B7: L1a (peptide)
# peptide: HGIVG
# modifications: triazole (positions not given here); not fully specified (bridges); also: 1,4-triazole macrocycle, ring places not given here, propargylglycine click handle, place not given here, biotinylated (biotin NovaTag resin), site not given here
# notes: It is one of two HPLC fractions of the same mass; also called HGIVG f1
# B8: L5a (peptide)
# peptide: VEVYP
# modifications: triazole (positions not given here); not fully specified (bridges); also: 1,4-triazole macrocycle, ring places not given here, propargylglycine click handle, place not given here, biotinylated (biotin NovaTag resin), site not given here
# notes: also called VEVYP f1
# B9: L1b (peptide)
# peptide: HGIVG
# modifications: triazole (positions not given here); not fully specified (bridges); also: 1,4-triazole macrocycle, ring places not given here, propargylglycine click handle, place not given here, biotinylated (biotin NovaTag resin), site not given here
# notes: Second HPLC fraction; also called HGIVG f2
# B10: L2 (peptide)
# peptide: EGVPV
# modifications: triazole (positions not given here); not fully specified (bridges); also: macrocycle closed by 1,4-triazole, propargylglycine click handle, other ring residues not given here
# notes: also called EGVPV
# B11: L4a (peptide)
# peptide: VEVPY
# modifications: triazole (positions not given here); not fully specified (bridges); also: 1,4-triazole macrocycle, ring places not given here, propargylglycine click handle, place not given here, biotinylated (biotin NovaTag resin), site not given here
# notes: also called VEVPY f1
# B12: L3b (peptide)
# peptide: GEVVP
# modifications: triazole (positions not given here); not fully specified (bridges); also: 1,4-triazole macrocycle, ring places not given here, propargylglycine click handle, place not given here, biotinylated (biotin NovaTag resin), site not given here
# notes: also called GEVVP f2
# B13: L4b (peptide)
# peptide: VEVPY
# modifications: triazole (positions not given here); not fully specified (bridges); also: 1,4-triazole macrocycle, ring places not given here, propargylglycine click handle, place not given here, biotinylated (biotin NovaTag resin), site not given here
# notes: also called VEVPY f2
# Molecular target: T1, His6-tagged human KRas Isoform 4B (residues 1-169) (human, UniProt P01116-2 1-169)
# T1 construct: Expressed in E. coli BL21(DE3), purified on Ni-NTA; also called KRas protein; WT KRas protein; not shown: His6 tag from the PQE80 vector
# Assay: multi-well sandwich ELISA; ligand on Neutravidin plate, KRas 0-300 µM
# Experimental: (§1) A 96-well Pierce Neutravidin Plate was washed with binding buffer (3×5 minutes at RT) before loading plate with a 1 μM solution of either blank (biotin-PEG₅-NHAc) (singly) or biotinylated PCC ligand (in triplicate). The plate incubated for two hours before washing with binding buffer (3×5 minutes). Blocking buffer was added to each well and the plate blocked for one hour before undergoing washing with binding buffer (3×5 minutes). Each well was loaded with either binding buffer or KRas solution (0→300 μM), and the plate was incubated for 30 minutes. Plate washing with binding buffer (3×5 minutes) preceded incubating the plate with a (1000:1) dilution of 1° antibody (ab) rabbit anti-Ras (CST #3965) in ab buffer for thirty minutes. The plate was washed with binding buffer (3×5 minutes), loaded with a (2000:1) dilution of 2° ab goat anti-rabbit, HRP-linked ab (CST #7074) in ab buffer, and incubated for an additional thirty minutes. The plate was rinsed with binding buffer (3×5 minutes), TBS (1×5 minutes), loaded with a (1:1) mixture of TMB Peroxidase Solution and TMB Peroxidase Solution B, and developed with occasional agitation for 8-12 minutes. After quenching the enzymatic reaction with 1M H₂SO_{4(aq)} (100 μL) the plate was read at λ=450 nm within ten minutes. The data was double background corrected using the ab only absorbance and the dummy ligand absorbance, plotted using Prism GraphPad 7 (Sigmoidal 4PL mode with the Hill coefficient set=1), and an EC₅₀ value was calculated.
row,EC50 [µM],Binder
1,44.2,B1
2,25.8,B2
3,7.78,B3
4,25.6,B4
5,6.87,B5

# Molecular target: T1, His6-tagged human KRas Isoform 4B …
# Assay: multi-well sandwich ELISA; ligand on Neutravidin plate, KRas 0-300 µM; footnote b: poorly resolved
# Experimental: as §1
row,EC50 [µM],Binder
1,159,B6
2,1.65,B7
3,3.72,B8
4,0.76,B9
5,33.2,B10

# Molecular target: T1, His6-tagged human KRas Isoform 4B …
# Assay: cell-based or functional assay
"IC50 of the intrinsic GTPase activity of KRas (GTPase-Glo, 10 µM KRas, four-hour incubation) [µM]",IC50 of the intrinsic GTPase enzymatic activity of KRas [µM],Binder
24,~20,B10

# Molecular target: T1, His6-tagged human KRas Isoform 4B …
# Assay: B-RAP immunofluorescence, 10 µM KRas well, pixel-by-pixel along the barcode lane
Avg F635 (full centroid),Avg F635 (full lane),avg F635 (left part centroid),avg F635 (middle part centroid),avg F635 (right part centroid),Binder
17800,16000,15600,19400,18500,B6

# Molecular target: T1, His6-tagged human KRas Isoform 4B …
# Assay: B-RAP surface immunofluorescence assay; ligand on barcode via SAC-DNA, KRas titrated 0-400 µM
# Experimental: After extraction the data is background corrected. The background signal arises from (a) non-specific binding of the primary and secondary antibodies (independent of [KRas]), but can vary across different barcode stripes), and (b) non-specific binding of KRas protein ([KRas] dependent). Background (a) was assessed by measuring the average signal in the null protein well for each stripe. Background (b) was assessed by measuring the average fluorescence for the dummy ligand (Biotin* probe) that was in each well. The background subtracted data was then graphed in Graphpad Prism 7 and fitted to a sigmoidal curve (Hill coefficient=1).
# A pre-fabricated PDMS template was aligned onto the DNA barcode microchip, and the microchip was taped into a 10 cm petri dish. The wells on the platform were wet with 50 μL PBST before filling with blocking buffer and placing into a 37° C. incubator for 1 hr. Concurrently, 40 μL 1% BSA in PBS solutions containing 750 nM of a SAC-DNA conjugate and 3.75 μM of one biotinylated PCC ligand or biotin-A₂₀-Cy3 blank were prepared for each SAC-DNA conjugate. The biotinylated ligands were allowed to complex with the SAC protein for one hour before pooling the SAC-DNA-ligand solutions (final [SAC-DNA-ligand conjugates]=50 nM). The blocking buffer was aspirated and each well was loaded with the SAC-DNA-ligand conjugates cocktail for hybridization with the DNA barcode at 37° C. for one hour. The wells were washed with PBST (3×) before loading serially diluted solutions of KRas protein in protein buffer (0 to 400 μM). After shaking at RT for one hour, the wells were rinsed with PBST (5×), making sure to pipet up/down with the first addition of PB ST. A (100:1) dilution of CST rabbit anti-Ras Ab (#39655) in 1° ab buffer was added to each well before shaking at RT for one hour. After rinsing the wells with PBST (3×), the wells were loaded with a (200:1) dilution of Abcam goat anti-rabbit-Alexafluor 647 linked ab (ab150079) in 2° ab buffer before shaking at RT for one hour. A final rinse of the wells with PBST (3×) proceeded peeling off the PDMS slab from the barcode microchip and dipping the barcode into the following solutions: PBS, (1:1) PBS: MQ H₂O, MQ H₂O (2×). After being spun dry, the barcode was read on the Genepix (635 nm, PMT 600, PWR 40% (60 W); 532 nm, PMT 450, PWR 15% (23 W)).
row,EC50 [µM],Binder
1,18.9,B6
2,0.97,B7
3,5.23,B8
4,1.33,B9
5,2.8,B4
6,3.31,B10
7,7.8,B5

# Molecular target: T1, His6-tagged human KRas Isoform 4B …
# Assay: barcoded rapid assay microchip, fitted curves of FIG. 6B (Hill coefficient 1), triplicate
row,EC50 [µM],Binder
1,19.6,B11
2,30.3,B1
3,31.5,B2
4,16,B6
5,19.4,B12
6,53.3,B3
7,16.2,B7
8,12.2,B9
9,8.44,B4
10,8.19,B10
11,32.7,B13
